Legend:
TK1094 protein = biological target: T1, TK1094 protein (Thermococcus kodakarensis, UniProt Q5JE21); test: glycine formation, HPLC; assay type: biochemical; settings: amino donor; 10 mM glyoxylate; 20 μM PLP; 50 mM HEPES pH 7.5; 80 °C
T1 sequence (Q5JE21 1-399): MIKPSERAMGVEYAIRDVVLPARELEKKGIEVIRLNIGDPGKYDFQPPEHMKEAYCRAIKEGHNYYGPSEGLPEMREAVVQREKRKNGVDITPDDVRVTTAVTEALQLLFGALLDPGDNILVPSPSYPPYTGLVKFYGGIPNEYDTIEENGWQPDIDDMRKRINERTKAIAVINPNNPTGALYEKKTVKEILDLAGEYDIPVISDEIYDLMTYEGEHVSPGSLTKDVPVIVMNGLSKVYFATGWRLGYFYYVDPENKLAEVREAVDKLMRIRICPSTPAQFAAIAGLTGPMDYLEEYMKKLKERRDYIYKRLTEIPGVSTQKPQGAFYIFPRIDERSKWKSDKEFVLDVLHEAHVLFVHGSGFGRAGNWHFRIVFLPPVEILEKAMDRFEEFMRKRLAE

TK0186 protein = biological target: T2, TK0186 protein (Thermococcus kodakarensis, UniProt Q5JFM8); test: glycine formation, HPLC; assay type: biochemical; settings: amino donor; 10 mM glyoxylate; 20 μM PLP; 50 mM HEPES pH 7.5; 80 °C
T2 sequence (Q5JFM8 1-417): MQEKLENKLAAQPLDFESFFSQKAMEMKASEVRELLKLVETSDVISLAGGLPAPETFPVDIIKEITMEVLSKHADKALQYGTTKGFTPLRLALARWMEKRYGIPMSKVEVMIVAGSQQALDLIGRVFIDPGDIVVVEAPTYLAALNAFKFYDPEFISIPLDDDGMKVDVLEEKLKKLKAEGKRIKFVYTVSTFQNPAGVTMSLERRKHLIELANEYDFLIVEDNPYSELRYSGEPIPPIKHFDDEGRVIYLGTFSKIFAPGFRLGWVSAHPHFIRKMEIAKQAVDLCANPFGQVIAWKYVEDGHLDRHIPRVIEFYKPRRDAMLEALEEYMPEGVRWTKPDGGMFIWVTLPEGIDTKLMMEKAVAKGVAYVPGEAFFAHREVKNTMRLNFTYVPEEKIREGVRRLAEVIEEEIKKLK

purified protein [1] = substrate: O=C(O)COP(=O)(O)O; test: purified protein; settings: 80 °C
purified protein [2] = substrate: O=C(CO)[C@H](O)[C@H](O)COP(=O)(O)O; test: purified protein; settings: 80 °C, 50 mM MES-NaOH pH 6.5, 10 mM MgCl2
purified protein [3] = substrate: O=C(COP(=O)(O)O)[C@H](O)[C@H](O)COP(=O)(O)O; test: purified protein; settings: 80 °C, 50 mM MES-NaOH pH 6.5, 10 mM MgCl2
purified protein [4] = substrate: O=C[C@H](O)[C@H](O)COP(=O)(O)O; test: purified protein; settings: 80 °C, 50 mM MES-NaOH pH 6.5, 10 mM MgCl2
purified protein [5] = substrate: CC(=O)C(=O)O; test: purified protein; settings: reduction, 0.3 mM NADH, 85 °C, 50 mM Tris pH 7.5
purified protein [6] = substrate: CC(C)C(=O)C(=O)O; test: purified protein; settings: reduction, 0.3 mM NADH, 85 °C, 50 mM Tris pH 7.5
purified protein [7] = substrate: CCCC(=O)C(=O)O; test: purified protein; settings: reduction, 0.3 mM NADH, 85 °C, 50 mM Tris pH 7.5
purified protein [8] = substrate: CC[C@H](C)C(=O)C(=O)O; test: purified protein; settings: reduction, 0.3 mM NADH, 85 °C, 50 mM Tris pH 7.5
purified protein [9] = substrate: C[C@@H](O)C(=O)O; test: purified protein; settings: oxidation, 10 mM NAD+, 80 °C, 50 mM Tris pH 7.5
purified protein [10] = substrate: O=C(O)C(=O)CO; test: purified protein; settings: reduction, 0.3 mM NADH, 85 °C, 50 mM Tris pH 7.5
purified protein [11] = substrate: O=C(O)CO; test: purified protein; settings: oxidation, 10 mM NAD+, 80 °C, 50 mM Tris pH 7.5
purified protein [12] = substrate: O=CC(=O)O; test: purified protein; settings: reduction, 0.3 mM NADH, 85 °C, 50 mM Tris pH 7.5
[13] = 50 mM MES-NaOH pH 7.0, 10 mM MgCl2
[14] = 50 mM MES-NaOH pH 6.5, 10 mM MgCl2

**Q.** For C[C@H](N)C(=O)O [L-alanine], which “glycine formation, HPLC” value (TK1094 protein) is on record?
**A.** Its value is “In the case of the TK1094 protein, activity was observed with L-alanine and L-glutamate”.

**Q.** And the “glycine formation, HPLC” value (TK0186 protein)?
**A.** The value was “the most preferred amino donor was L-alanine (Fig. 3E)”.

B1: TK1734 protein (2-PG phosphatase) (Thermococcus kodakarensis KOD1) (protein)
chain: MTRKIGIIFDMDGVIYRGSEPINGAKEVIEFLKERKIPFLFLTNNSTRDPAMYREKLLSMGIDVPEDVIVTSGLATRLYMEKHFEPGEVFVIGGKGLLREMERLGWGVVSLEDARKGAWKRIKHVVVGLDPELTYEKLKYGTLAIRNGASFIGTNPDTTYPAEEGLYPGAGAIIAALRASTDREPVIIGKPNEPAYEVVKDKLGDVEELWMVGDRLDTDIAFAKRFGMKAIMVLTGVSTLKDVAESGIKPNLVLPDVGELKRYLEAAL
**Q.** What does the source list for B1?
**A.** Km (purified protein [1]; [13]): 1750 ± 220 µM; kcat (purified protein [1]; [13]): 65.6 ± 2.5 s⁻¹; kcat/Km (purified protein [1]; [13]): 37500 M⁻¹ s⁻¹

B2: TK2301 protein (Thermococcus kodakarensis KOD1) (protein)
chain: MTIKAISVDIDGTITYPDRRLHEKALEAIRLAESLGVPVMLVTGNTVQFGEAAAILIGTSGPVVGEDGGALSIKEGKLRKRVYLTNMDEEWILWGELKKRYPEALLSFSMPERKAGLVVLRTVPVKAVRELIKELGLNLIAVDSGFAIHIKKPWINKGTGIEKACEYLGISPKEVAHIGDGENDLDAFGVVGYRVAVAQAPESLKEKADYVTTKPYGEGGAEAIEHILRKFGYLPEEKT
**Q.** For B2, which Km (purified protein [2]) is on record?
**A.** The Km was 979 ± 157 µM.

**Q.** What about the kcat (purified protein [2]) of the same molecule?
**A.** Its kcat is 16.3 ± 0.5 s⁻¹.

**Q.** And the kcat/Km (purified protein [2])?
**A.** Its kcat/Km is 16600 M⁻¹ s⁻¹.

**Q.** And the Km (purified protein [3])?
**A.** The Km was 238 ± 44 µM.

**Q.** And the kcat (purified protein [3])?
**A.** The kcat was 30.1 ± 1.3 s⁻¹.

**Q.** What about the kcat/Km (purified protein [3]) of the same molecule?
**A.** Its kcat/Km is 126000 M⁻¹ s⁻¹.

**Q.** What about the Km (purified protein [1]; [14]) of the same molecule?
**A.** Its Km is 1220 ± 90 µM.

**Q.** What about the kcat (purified protein [1]; [14]) of the same molecule?
**A.** The kcat was 21.2 ± 0.4 s⁻¹.

**Q.** What about the kcat/Km (purified protein [1]; [14]) of the same molecule?
**A.** Its kcat/Km is 17400 M⁻¹ s⁻¹.

**Q.** And the Km (purified protein [4])?
**A.** The Km was 1250 ± 280 µM.

**Q.** And the kcat (purified protein [4])?
**A.** The kcat was 17.1 ± 1 s⁻¹.

**Q.** What about the kcat/Km (purified protein [4]) of the same molecule?
**A.** The kcat/Km was 13700 M⁻¹ s⁻¹.

B3: TK0551 protein (GLDH candidate) (Thermococcus kodakarensis KOD1) (protein)
chain: MRPRVLVTFKMKSKPVEELKKYADVDFLLYPSVEELAEKIKDYDGLIVSPLNRVPREVIERAERLKVISCHSAGYDHVDVEAATKKGIYVTKVSGVLSEAVAEFAVGLTIALLRKFVYTDKLIRRGEWDSHAKIWSTFKDIETVYGKKVGILGMGAIGKAIARRMKAMGTEILYWSRSRKEDIEAEVGAKYLPLDEVLRESDIVILALPATPETYHIINEERIKLLEGKYLVNIGRGTLVDEKAVVKAIEEGRLKGYATDVFEKEPVTEHPLFKYEWETVLTPHHAGLSKEAMEDMGFQAVMNLLAVLRGEIPKDLVNREVVKVRPPEEVKML
**Q.** Which results are given for B3?
**A.** Km (purified protein [5]): 6890 ± 810 µM; kcat (purified protein [5]): 12.4 ± 0.6 s⁻¹; kcat/Km (purified protein [5]): 1780 M⁻¹ s⁻¹; Km (purified protein [6]): 1900 ± 440 µM; kcat (purified protein [6]): 15.9 ± 2.2 s⁻¹; kcat/Km (purified protein [6]): 8370 M⁻¹ s⁻¹; Km (purified protein [7]): 1440 ± 90 µM; kcat (purified protein [7]): 14 ± 0.3 s⁻¹; kcat/Km (purified protein [7]): 9720 M⁻¹ s⁻¹; Km (purified protein [8]): 1930 ± 250 µM; kcat (purified protein [8]): 18.3 ± 2.2 s⁻¹; kcat/Km (purified protein [8]): 9480 M⁻¹ s⁻¹; Km (purified protein [9]): 9900 ± 1150 µM; kcat (purified protein [9]): 0.324 ± 0.013 s⁻¹; kcat/Km (purified protein [9]): 32.7 M⁻¹ s⁻¹; Km (purified protein [10]): 3730 ± 250 µM; kcat (purified protein [10]): 104 ± 3 s⁻¹; kcat/Km (purified protein [10]): 27900 M⁻¹ s⁻¹; Km (purified protein [11]): 24100 ± 1260 µM; kcat (purified protein [11]): 0.376 ± 0.009 s⁻¹; kcat/Km (purified protein [11]): 15.6 M⁻¹ s⁻¹; Km (purified protein [12]): 2870 ± 390 µM; kcat (purified protein [12]): 186 ± 2 s⁻¹; kcat/Km (purified protein [12]): 64800 M⁻¹ s⁻¹

B4: TK0683 protein (GLDH) (Thermococcus kodakarensis KOD1) (protein)
chain: MRPKVFITRAIPENGIEMLKEHFEVEVWPEEREIPREVLLKKVRDVDALVTMLSERIDSEVFDAAPRLRIVANYAVGYDNIDVEEATRRGIYVTNTPDVLTDATADFAWTLLLATARRLIEADHFTRSGEWKRRGIAWHPRWFLGYDVYGKTIGIVGFGRIGQAVARRARGFGMRILYYSRSRKPEAEKELGAEFRSLEDLLRESDFVVLAVPLTKETQYMINEERLRLMKKTAILVNIARGKVVDTKALMKALKEGWIAGAGLDVYEEEPYYNEELFSLKNVVLAPHIGSATYGAREGMAELVARNLIAFKNGEVPPTLVNKEVVKVRKPGF
**Q.** B4 was tested. Which Km (purified protein [9]) did it give?
**A.** The Km was 440 ± 60 µM.

**Q.** And the kcat (purified protein [9])?
**A.** Its kcat is 0.105 ± 0.003 s⁻¹.

**Q.** And the kcat/Km (purified protein [9])?
**A.** The kcat/Km was 240 M⁻¹ s⁻¹.

**Q.** What about the Km (purified protein [10]) of the same molecule?
**A.** Its Km is 310 ± 70 µM.

**Q.** What about the kcat (purified protein [10]) of the same molecule?
**A.** Its kcat is 3130 ± 462 s⁻¹.

**Q.** And the kcat/Km (purified protein [10])?
**A.** The kcat/Km was 1e+07 M⁻¹ s⁻¹.

**Q.** What about the Km (purified protein [11]) of the same molecule?
**A.** Its Km is 440 ± 60 µM.

**Q.** What about the kcat (purified protein [11]) of the same molecule?
**A.** Its kcat is 0.213 ± 0.005 s⁻¹.

**Q.** And the kcat/Km (purified protein [11])?
**A.** The kcat/Km was 490 M⁻¹ s⁻¹.

**Q.** What about the Km (purified protein [12]) of the same molecule?
**A.** The Km was 1490 ± 800 µM.

**Q.** And the kcat (purified protein [12])?
**A.** Its kcat is 2030 ± 92 s⁻¹.

**Q.** And the kcat/Km (purified protein [12])?
**A.** The kcat/Km was 1.36e+06 M⁻¹ s⁻¹.
